Data on one molecule can be found in patent US20140349928A1 (MEDERIS DIABETES, published 2014).

For the test, the target named is GLP-1 receptor. Put plainly: cell-based or functional assay.

Non-standard residues stand in square brackets, D forms with d. No end group written: not given here. Aib = CC(C)(N)C(=O)O

B1: EU-A391 (peptide)
peptide: H[Aib]QGT[Me‑Phe]TSDYSKYLD[Aib]K-NH2
modifications: not fully specified (residue 17); also: 1-dodecyl beta-D-glucuronyl surfactant on a linker residue
On to B1, for which the “EC50, cAMP generated in cells (GLP-1 cellular assay)” value came out at 420 nM.
